Measured values from patent US20220356239A1 (JIANGSU HENGRUI MEDICINE, published 2022).

T1: Human IL-5 amino acid sequence with his tag (rhIL-5-his) (human, UniProt P05113 20-134)
T1 sequence: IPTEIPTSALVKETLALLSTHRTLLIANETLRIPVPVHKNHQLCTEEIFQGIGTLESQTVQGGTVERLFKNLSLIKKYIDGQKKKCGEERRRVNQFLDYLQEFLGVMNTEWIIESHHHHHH


Experiments:
[1] = target: T1, Human IL-5 amino acid sequence with his …; assay: cell-based or functional assay
[2] = target: T1, Human IL-5 amino acid sequence with his …; assay: cell-based or functional assay; remark: listed apart in the source
[3] = target: T1, Human IL-5 amino acid sequence with his …; assay: FACS blocking of biotin-IL-5 binding to IL-5Rα/β CHO-S cells
Method: Particular method: CHO-S-IL-5Rα and β were cultivated with CD-CHO containing […] and 25 ng/ml zeozin, and the concentration during cell culture was no more than 3×10⁶ cells/ml. The IL-5Rα/β-CHOS cells in good condition were centrifuged (1000 rpm, 5 min), washed once with 10% FBS in PBS, counted, the cell concentration was adjusted to 4×10⁶ cells/ml, and 25 μl of which was added to 96-well plate with round bottom. Antibodies to be tested were diluted with PBS solution containing 10% FBS, with an initial concentration of 200 μg/ml, and 8 gradients were obtained by 1:10 dilution. 25 μl of 100 ng/ml IL-5 labeled with Biotin Labeling Kit (Dojindo Chemical, LK03), was uniformly mixed with 50 μl of each diluted antibody, added into the 96-well plate to which the cells has been added, and incubated at 4° C. for 1 hour. After the incubation, centrifuged at 4° C. (400 g, 5 min), the supernatant was discarded, centrifuged and washed with 200 μl of pre-cooled PBS, repeat twice; PE-Avidin secondary antibody diluted at 1:1333 was added and incubated in darkness at […] for 40 min, the supernatant was discarded after being centrifuged at 4° C. […] The plate was read on instrument, and IC50 values for IL-5 antibodies to block the binding between IL-5 and IL-5Rα/β were calculated based on the fluorescence signal values.

[4] = target: T1, Human IL-5 amino acid sequence with his …; assay: Biacore T200 SPR, antibody captured on Protein A chip, antigen in flow, 1:1 Langmuir fit
Method: The affinity between the test humanized IL-5 antibodies and human IL-5 was determined by using Biacore T200 (GE) instrument.
Molecules to be tested were affinity-captured by Protein A biosensor chip, and then the antigen (prepared in Example 1) was flowed through the surface of the chip, and the reaction signals were detected in real time by using Biacore T200 instrument to obtain binding and dissociation curves. After the dissociation of each cycle of experiment was completed, the biosensor chip was washed and regenerated with glycine-hydrochloric acid regeneration solution (pH 1.5). The data was fitted to the (1:1) Langmuir model by using BIAevaluation version 4.1 GE software, and the affinity values were obtained as shown in Table 14.

IC50 of inhibition of IL-5-induced proliferation of TF1 cells [1] [nM] | IC50 of blocking IL-5-induced eosinophil adhesion [2] [µg/mL] | IC50 [3] [µg/mL] | Kd [4] [nM] | Binder
0.16 | 0.0212 |  |  | h1780-017 (antibody, human IgG1, kappa, V domains shown) VH: EVQLVQSGAEVKKPGASVKVSCKASGYTFTEYLIHWVRQAPGQGLEWIGYINPYSGGTVYNEKFKSRATLTVDKSISTAYMEFSRLRSDDTAVYYCARDGGYSDPLDYWGQGTMVTVSS VL: DTVLTQSPATLSLSPGERATLSCRASEGLTSYMHWYQQKPGQAPRLLIYKASNLASGVPARFSGSGSGTDFTLTISSLEPEDFATYFCQQNWNDPWTFGGGTKVEIKR
0.2 |  | 0.0496 | 0.412 | h1779-014 (antibody, human IgG1, kappa, V domains shown, h1779_VH.1D + h1779_VL.1A; IgG1 (YTE) / kappa constant regions) VH: EVQLVQSGAEVKKPGASVKVSCKASGYTFTDYIIHWVKQAPGQGLEWIGYFNPNSGGSNYNENFKRKATMTADKSISTAYLEFSRLRSEDTAVYYCARRIAWDHWYFDFWGQGTMVTVSS VL: DIQMTQSPSSLSASVGDRVTITCLASEGISNDVAWYQQKPGKSPKLLIYAASRLQDGVPSRFSGSGSGTDFTFTISSLQPEDIATYYCQQGYKTPLTFGQGTKLEIKR
0.38 |  |  |  | h1773-007 (antibody, human IgG1, kappa, V domains shown) VH: EVQLVESGGGLVQPGGSLKLSCAASGFTISNTYIHWVKQASGKGLEWIGRIDPAVGDTKHGPKFQGRFTISADDSKNTAYLQMNSLKTEDTAVYYCFRYGIYPDHWGQGTLVTVSS VL: DIQLTQSPSSLSASVGDRVTITCSASSSVNYIYWYQQKPGKSPKPWIYLTATLASGVPSRFSGSGSGTDFTLTISSLQPEDFATYYCQQWNSYPYTFGGGTKVEIKR
0.3 | 0.0118 |  |  | Hu39D10 (antibody, human IgG4 S228P, kappa, V domains shown) VH: EVQLVESGGGLVQPGGSLRLSCAVSGLSLTSNSVNWIRQAPGKGLEWVGLIWSNGDTDYNSAIKSRFTISRDTSKSTVYLQMNSLRAEDTAVYYCAREYYGYFDYWGQGTLVTVSS VL: DIQMTQSPSSLSASVGDRVTITCLASEGISSYLAWYQQKPGKAPKLLIYGANSLQTGVPSRFSGSGSATDYTLTISSLQPEDFATYYCQQSYKFPNTFGQGTKVEVKR
0.34 |  |  |  | h1706-006 (antibody, human IgG1, kappa, V domains shown) VH: EVQLVESGGGLVQPGGSLRLSCAASGFTFSHYYMAWVRQAPGKGLEWVSSINYEGNSAYYGDSVKGRFTISRDNSKNTLYLQMNSLRAEDTAVYYCATETLRESLDYWGQGTMVTVSS VL: DIQMTQSPSSVSASVGDRVTITCRASQDIGNYLSWYQQKPGKSPKLLIYSASNLEVGVPSRFSGSGSGTDFTLTISSLQPEDFATYYCLQHKQFPRTFGGGTKVEIKR
0.25 |  |  |  | h1705-007 (antibody, human IgG1, kappa, V domains shown) VH: EVQLVESGGGLVQPGGSLRLSCAASGFTFSHYYMAWVRQAPGKGLEWVSSISYEGDITYYGDSVKGRFTISRDNSKNTLYLQMNSLRAEDTAVYYCASQTLRESFDYWGQGTLVTVSS VL: DIQMTQSPSSVSASVGDRVTITCRASQDIANYLSWYQQKPGKSPKLLIYGTSNLEVGVPSRFSGSRSGTDFTLTISSLQPEDFATYYCLQDKEFPRTFGGGTKVEIKR
0.28 |  |  |  | h1706-007 (antibody, human IgG1, kappa, V domains shown) VH: EVQLVESGGGLVQPGGSLRLSCAASGFTFSHYYMAWVRQAPGKGLEWVTSINYEGNSAYYGDSVKGRFTISRDNSKNTLYLQMNSLRAEDTATYYCATETLRESLDYWGQGTMVTVSS VL: DIQMTQSPSSVSASVGDRVTITCRASQDIGNYLSWYQQKPGKSPKLLIYSASNLEVGVPSRFSGSGSGTDFTLTISSLQPEDFATYYCLQHKQFPRTFGGGTKVEIKR
0.3 |  |  |  | h1706-004 (antibody, human IgG1, kappa, V domains shown) VH: EVQLVESGGGLVQPGGSLRLSCAASGFTFSHYYMAWVRQAPGKGLEWVTSINYEGNSAYYGDSVKGRFTISRDNSKNTLYLQMNSLRAEDTATYYCATETLRESLDYWGQGTMVTVSS VL: DIQMTQSPSSVSASVGDRVTITCRASQDIGNYLSWYQQKPGKAPKLLIYSASNLEVGVPSRFSGSGSGTDFTLTISSLQPEDFATYYCLQHKQFPRTFGGGTKVEIKR
0.3 |  |  |  | h1705-010 (antibody, human IgG1, kappa, V domains shown) VH: EVQLVESGGGLVQPGGSLRLSCAASGFTFSHYYMAWVRQAPGKGLEWVSSISYEGDITYYGDSVKGRFTISRDNSKNTLYLQMNSLRAEDTAVYYCASQTLRESFDYWGQGTLVTVSS VL: DIQMTQSPSSVSASVGDRVTITCRASQDIANYLSWYQQKPGKSPKLVIYGTSNLEVGVPSRFSGSRSGSDYTLTISSLQPEDFATYFCLQDKEFPRTFGGGTKVEIKR
0.31 |  |  |  | h1706-003 (antibody, human IgG1, kappa, V domains shown) VH: EVQLVESGGGLVQPGGSLRLSCAASGFTFSHYYMAWVRQAPGKGLEWVSSINYEGNSAYYGDSVKGRFTISRDNSKNTLYLQMNSLRAEDTAVYYCATETLRESLDYWGQGTMVTVSS VL: DIQMTQSPSSVSASVGDRVTITCRASQDIGNYLSWYQQKPGKAPKLLIYSASNLEVGVPSRFSGSGSGTDFTLTISSLQPEDFATYYCLQHKQFPRTFGGGTKVEIKR
0.2 | 0.00485 |  |  | h1705-008 (antibody, human IgG1, kappa, V domains shown) VH: EVQLVESGGGLVQPGGSLRLSCAASGFTFSHYYMAWVRQAPGKGLEWVTSISYEGDITYYGDSVKGRFTISRDNSKNTLYLQMNSLRAEDTATYYCASQTLRESFDYWGQGTLVTVSS VL: DIQMTQSPSSVSASVGDRVTITCRASQDIANYLSWYQQKPGKSPKLLIYGTSNLEVGVPSRFSGSRSGTDFTLTISSLQPEDFATYYCLQDKEFPRTFGGGTKVEIKR
0.3 |  |  |  | h1705-005 (antibody, human IgG1, kappa, V domains shown) VH: EVQLVESGGGLVQPGGSLRLSCAASGFTFSHYYMAWVRQAPGKGLEWVTSISYEGDITYYGDSVKGRFTISRDNSKNTLYLQMNSLRAEDTATYYCASQTLRESFDYWGQGTLVTVSS VL: DIQMTQSPSSVSASVGDRVTITCRASQDIANYLSWYQQKPGKAPKLLIYGTSNLEVGVPSRFSGSGSGTDFTLTISSLQPEDFATYYCLQDKEFPRTFGGGTKVEIKR
0.25 | 0.0043 |  |  | h1706-009 (antibody, human IgG1, kappa, V domains shown) VH: EVQLVESGGGLVQPGGSLRLSCAASGFTFSHYYMAWVRQAPGKGLEWVSSINYEGNSAYYGDSVKGRFTISRDNSKNTLYLQMNSLRAEDTAVYYCATETLRESLDYWGQGTMVTVSS VL: DIQMTQSPSSVSASVGDRVTITCRASQDIGNYLSWYQQKPGKSPKLMIYSASNLEVGVPSRFSGSGSGTDYTLTISSLQPEDFATYFCLQHKQFPRTFGGGTKVEIKR
0.3 |  |  |  | h1705-004 (antibody, human IgG1, kappa, V domains shown) VH: EVQLVESGGGLVQPGGSLRLSCAASGFTFSHYYMAWVRQAPGKGLEWVSSISYEGDITYYGDSVKGRFTISRDNSKNTLYLQMNSLRAEDTAVYYCASQTLRESFDYWGQGTLVTVSS VL: DIQMTQSPSSVSASVGDRVTITCRASQDIANYLSWYQQKPGKAPKLLIYGTSNLEVGVPSRFSGSGSGTDFTLTISSLQPEDFATYYCLQDKEFPRTFGGGTKVEIKR
0.28 |  |  |  | h1705-011 (antibody, human IgG1, kappa, V domains shown) VH: EVQLVESGGGLVQPGGSLRLSCAASGFTFSHYYMAWVRQAPGKGLEWVTSISYEGDITYYGDSVKGRFTISRDNSKNTLYLQMNSLRAEDTATYYCASQTLRESFDYWGQGTLVTVSS VL: DIQMTQSPSSVSASVGDRVTITCRASQDIANYLSWYQQKPGKSPKLVIYGTSNLEVGVPSRFSGSRSGSDYTLTISSLQPEDFATYFCLQDKEFPRTFGGGTKVEIKR
